Experimental findings from patent publication US20100291137A1 (GlaxoSmithKline, published 2010) are described below.

This series deals with the molecule itself. In words: analytical ultracentrifugation and chemical cross-linking.

B1: refolded NspA (recombinant mature NspA of Neisseria meningitidis strain H44/76, without the 19 amino acid signal peptide) (other)
chain: EGASGFYVQADAAHAKASSSLGSAKGFSPRISAGYRINDLRFAVDYTRYKNYKAPSTDFKLYSIGASAIYDFDTQSPVKPYLGARLSLNRASVDLGGSDSFSQTSIGLGVLTGVSYAVTPNVDLDAGYRYNYIGKVNTVKNVRSGELSAGVRVKF
For the protein B1, the binding result is recorded as “no binding”.
